Laboratory results reported in paper PMC4169044.

Molecular target: 55S mitochondrial ribosome from pig liver mitochondria (pig (endogenous in pig liver mitochondria))
Test: Western blotting of purified ribosomes against a protein standard; amount of integrated ICT1 on purified pig 55S ribosomes estimated with purified ICT1 as a standard

**Q.** With “55S-integrated ICT1 of the pig mitoribosome (mitochondrial ribosomal protein L58) (natural protein)” as the substance, how does the stoichiometry N (ICT1 per 55S ribosome) read?
**A.** 1
